From patent US20240317816A1, “PEPTIDES FOR IMMUNOTHERAPY” (Genevive, Inc., priority 2021, published 2024)

Legend:
Format in all cases: cell-based
CXCR3 [1] = target: T1, CXCR3 (Homo sapiens, UniProt P49682); test: gpcrMAX PathHunter β-Arrestin Assay
T1 sequence (P49682 1-368): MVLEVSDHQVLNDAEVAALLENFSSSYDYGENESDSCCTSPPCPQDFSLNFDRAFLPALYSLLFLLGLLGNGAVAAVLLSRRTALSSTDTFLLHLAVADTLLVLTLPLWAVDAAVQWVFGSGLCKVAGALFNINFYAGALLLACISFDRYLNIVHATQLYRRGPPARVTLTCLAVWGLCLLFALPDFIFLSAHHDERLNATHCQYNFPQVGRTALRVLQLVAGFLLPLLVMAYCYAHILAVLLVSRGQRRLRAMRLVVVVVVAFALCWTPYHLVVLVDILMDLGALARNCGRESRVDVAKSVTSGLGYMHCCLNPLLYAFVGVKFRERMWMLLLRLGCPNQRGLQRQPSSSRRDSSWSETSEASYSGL
Description: (§1) The PathHunter® β-Arrestin Assay monitored activation of a panel of 168 G-protein coupled receptors (GPCRs) with […] activation of the GPCR in agonist and antagonist mode.
(§2) where the test sample is the peptide, the vehicle control is DMSO (0% activity), and the control ligand is control compound (100% activity).
(§3) Peptides SG-3-00802 and SG-3-05021 were identified as an agonist, an antagonist, a PAM (Positive Allosteric Modulator), or an inverse-agonist. Agonist, antagonist, PAM, and inverse-agonist were identified according to the guidelines in Table 8. The basal activity/noise is a % activity of −20% to 20% for both agonist and antagonist modes. A PAM (Positive Allosteric Modulator) binds to a receptor, at a different site than the agonist, to change the receptor's response to the agonist. An inverse-Agonist is a binding partner with agonistic shutting down of basal activity in the cell. An antagonist antagonizes the activity of a particular binding partner.

CCR7 [2] = target: T2, CCR7 (Homo sapiens, UniProt P32248); test: gpcrMAX PathHunter β-Arrestin Assay
T2 construct: expressed in transfected cells
T2 sequence (P32248 25-378): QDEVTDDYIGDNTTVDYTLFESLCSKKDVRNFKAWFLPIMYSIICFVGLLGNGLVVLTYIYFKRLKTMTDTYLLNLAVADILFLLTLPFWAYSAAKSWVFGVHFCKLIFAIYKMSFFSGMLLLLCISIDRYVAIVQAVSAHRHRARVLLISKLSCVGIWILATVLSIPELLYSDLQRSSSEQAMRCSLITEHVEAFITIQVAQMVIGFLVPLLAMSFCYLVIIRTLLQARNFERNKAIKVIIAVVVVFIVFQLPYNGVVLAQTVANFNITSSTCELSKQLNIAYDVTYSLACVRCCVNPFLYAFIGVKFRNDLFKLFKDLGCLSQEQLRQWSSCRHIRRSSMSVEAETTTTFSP
Description: as §1, §2, §3

CXCR4 = target: T3, CXCR4 (Homo sapiens, UniProt P61073); test: SelectScreen agonist/antagonist assay, chemokine receptor expressing U2OS cells
T3 construct: host or cells: U2OS

CCR7 [3] = target: T2, CCR7; test: as above
Procedure: (§4) In agonist assays, chemokine receptor expressing U2OS cells are thawed and resuspended in Assay Media (DMEM, 1% dialyzed FBS, 25 mM HEPES pH 7.3, 0.1 mM NEAA, 100 U/mL/100 μg/mL Pen/Strep) to a concentration of 312,500 cells/mL. 4 μL of a 10× serial dilution of I-TAC (control agonist starting concentration, 500 nM) or compounds are added to appropriate wells of a 384-well TC-Treated assay plate. 32 μL of cell suspension (10,000 cells) is added to each well. 4 μL of Assay Media is added to all wells to bring the final assay volume to 40 μL. The plate is incubated for 16-24 hours at 37° C./5% CO2 in a humidified incubator. 8 μL of 1 μM Substrate+Solution D Loading Solution is added to each well and the plate is incubated for 2 hours at room temperature. The plate is read on a fluorescence plate reader.
In antagonist assays, CXCR3-bla U2OS cells were thawed and prepared as described above for the Agonist assay. 4 μL of 10× compounds or assay media was added to appropriate wells of a TC-Treated assay plate. 32 μL of cell suspension was added to the wells and pre-incubated at 37° C./5% CO2 in a humidified incubator with compounds and control antagonist titration for 30 minutes. 4 μL of 10× control agonist I-TAC at the pre-determined EC80 concentration is added to wells containing the control antagonist or compounds. […] The plate is read on a fluorescence plate reader.

CXCR3 [4] = target: T1, CXCR3; test: SelectScreen agonist/antagonist assay, CXCR3-bla U2OS cells; set-up: TEV protease site; Gal4-VP16 transcription factor ('Ga14-VP16' [sic]); Tango cell line; host or cells: Tango GPCR-bla U2OS; settings: for SelectScreen Antagonist Mode: control agonist I-TAC at EC80
Procedure: as §4
In antagonist assays, CXCR3-bla U2OS cells were thawed and prepared as described above for the Agonist assay. 4 μL of 10× compounds or assay media was added to appropriate wells of a TC-Treated assay plate. 32 μL of cell suspension was added to the wells and pre-incubated at 37° C./5% CO2 in a humidified incubator with compounds and control antagonist titration for 30 minutes. 4 μL of 10× control agonist I-TAC at the pre-determined EC80 concentration is added to wells containing the control antagonist or compounds. The plate is incubated for 16-24 hours at 37° C./5% CO2 in a humidified incubator. 8 μL of 1 μM Substrate+Solution D Loading Solution is added to each well and the plate is incubated for 2 hours at room temperature. The plate is read on a fluorescence plate reader.
Tango™ CXCR3-bla U2OS cells contain the human chemokine (C-X-C motif) receptor 3 linked to a TEV protease site and a Ga14-VP16 transcription factor stably integrated into the Tango™ GPCR-bla U2OS cell line. This parental cell line stably expresses a beta-arrestin/TEV protease fusion protein and the beta-lactamase reporter gene under the control of a UAS response element. The Tango™ CXCR3-bla U2OS cells have been functionally validated for a response to I-TAC (CXCL11).

[5] = test system: (LPS)-stimulated human monocyte-derived DCs; test: CXCL10 induction in LPS-stimulated dendritic cells; settings: for dose-dependent response of CXCL10 induction: dose response analysis, same assay setup; for CXCL10 induction: supernatants of low dose LPS-stimulated dendritic cells, vs other peptides and negative control peptide
Procedure: Studies were performed to identify target peptides that induced CXCL10 production. Target peptides identified from human microbiomes from patients that responded to anti-PD-1 therapy were each synthesized and tested for TNF-α, CXCL10, IL6, and INF-γ induction. Fifteen peptides with high CXCL10 induction were identified for additional testing, indicated with asterisks in the figure (FIG. 1). […] Peptide sequences and characteristics can be found in Tables 4-7.
Peptides that bound to specific immune cells (1% of the screened peptides) were then evaluated for activity in cell-based assays using isolated primary human T cells, DCs, and macrophages. Immune-driven inhibition of tumor growth relies on DC-mediated recruitment of effector T cells, mainly via CXCL9 and CXCL10. […] Peptides inducing robust CXCL10 secretion (LPS)-stimulated human monocyte-derived DCs from multiple donors, with a mean induction of >2-fold of CXCL10 over OVA323 339 control peptide in DCs were selected for dose response analysis (n=36). […] To confirm cross species activity, 10 of the 15 peptides with EC50<10 μM were screened in vitro for CXCL10 induction in mouse bone marrow DCs.

T3 sequence (P61073 whole entry): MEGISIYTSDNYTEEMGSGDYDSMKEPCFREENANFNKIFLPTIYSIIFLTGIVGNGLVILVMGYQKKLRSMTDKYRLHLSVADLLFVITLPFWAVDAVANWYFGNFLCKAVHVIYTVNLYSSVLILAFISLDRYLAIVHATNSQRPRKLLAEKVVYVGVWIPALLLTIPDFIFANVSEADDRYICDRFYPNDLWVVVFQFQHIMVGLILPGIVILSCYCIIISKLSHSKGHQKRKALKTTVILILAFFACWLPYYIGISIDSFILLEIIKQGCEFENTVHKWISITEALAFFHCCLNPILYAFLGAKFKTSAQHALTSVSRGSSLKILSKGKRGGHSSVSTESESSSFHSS

Sequence | gpcrMAX Agonist Mode (% Agonist Activity) (CXCR3 [1]) | gpcrMAX Antagonist Mode (% Antagonist Activity) (CXCR3 [1]) | Interpretation (CCR7 [2]) | gpcrMAX Agonist Mode (% Agonist Activity) (CCR7 [2]) | gpcrMAX Antagonist Mode (% Antagonist Activity) (CCR7 [2]) | SelectScreen Agonist Mode (CXCR4) | SelectScreen Antagonist Mode (CXCR4) | SelectScreen Agonist Mode (CCR7 [3]) | SelectScreen Agonist Mode (CXCR3 [4]) | SelectScreen Antagonist Mode (CXCR3 [4]) | dose-dependent response of CXCL10 induction [5] | CXCL10 induction [5]
MKVRPSVKPMCEKCKIIRRKGRVMVICENPKHKQRQG [SG-3-00802] | −4% | −32% | No | 0% | 0% | no agonistic activity and No | moderate antagonistic activity and Yes | weak agonistic activity and No | weak agonistic activity and No | potent reverse antagonistic activity (sensitization) and PAM | robust dose-dependent response | high CXCL10 inducers
LGKTDWIEKYFKVKKEKIDKMQRFLQG (peptide for immunotherapy; SG-3-05021) | −4% | −20% | – | 0% | −18% | no agonistic activity and No | – | no agonistic activity and No | no agonistic activity and No | reverse antagonistic activity (sensitization) and PAM | robust dose-dependent response | high CXCL10 inducers
